B1: C971 (antibody, V domains shown)
VH: EVQLVESGGGLVKPGGSLRLSCAASGFTFNNAWMTWVRQAPGKGLEWVGRIKSKTDGGTTDYGTPAKGRFTISRDDSKNTLYLQMKSLRTEDTAVYYCTTVDVQGIWELLENDAFDIWGQGTMVTVSS
VL: EIVLTQSPGTLSLSPGERATLSCRATQAISSTYLAWYQQKPGQAPRLLIYGAFSRAPGIPDRFSGSGSETDFTLTISRLEPEDFAVYYCQQSDRSPFTFGPGTKVDIK
notes: source: 293-6E cells, transfected, purified (Protein G Sepharose)
B2: C3083 (antibody, V domains shown)
VH: EVQLVESGGGFVRPGGSLRLSCSTSGFTFSMFAMHWVRQAPGKGLEYVSGVSSNGLNTYYADSVKGRLVISRDDSKNTLYLQMTGLRVEDTAVYYCVKDDDFGDPGYGYHLDYWGQGTLVTVSS
VL: QSALTQPASVSGSPGQSITISCTGTSSDVGGYNYVSWFQQHPGKAPKLVIFEVSNRPSGISDRFSGSKSGNTASLTISELQAEDEADYYCSSYTSRIPIIFGTGTKVTV
notes: as for B1
B3: C1040 (antibody, V domains shown)
VH: QVQLVESGGGVVQPGRSLRLSCAASGFSFINYNMHWVRQAPGKGLEWVAVIWYDGSNKYYADSVKGRFTISRDNSKNTLYLQMNSLRVEDTAVYYCARDPAITEAEIDYWGQGTLVTVSS
VL: DVVMTQSPLSLPVTLGQAASISCRSSQSLVHSDGNTYLNWFQQRPGQSPRRLIYRVSNRDSGVPDRFSASGSGTDFTLKISRVEAEDVGVYYCMQGTHWPWTFGQGTKVEIK
notes: as for B1
B4: C996 (antibody, V domains shown)
VH: EVQLVESGGGLVQPGGSLRLSCVASGFTSTNYDMHWVRQAPGRGLQWVSSIGTAGDTYYPGSVRGRFTISRENAKNSLDLQMNSLRVGDTAVYYCARGQRGYYDRSGYYWGWRAFDIWGQGTMVTVSS
VL: SYELTQPPSVSVAPGQTARITCGGNNIGNKSVYWYQQKPGQAPVLVVYDDSGRPSGIPERFSGSNSANTATLTISRVEAGDEADYYCQVWDNNSDQFGGGTKLTVL
notes: as for B1
B5: C022 (antibody, V domains shown)
VH: QVQLQESGPGLVKPSETLSVTCTVSGGSISSSRYYWGWIRQPPGKGLEWIGSIYYSGSTYYNPSLKSRVTISVDTSKNQFSLKLSSVTAADTAVYYCARHAAAYYDRSGYYFIEYFQHWGQGTLVTVSS
VL: DIQMTQSPSTLSASVGDSVTITCRASQSISSWLAWYQQKPGKAPKLLIYKASSLESGVPSRFSGSGSGTEFTLTISSLQPDDFATYYCQQYNNYRYTFGQGTKLEIK
notes: as for B1
B6: C1002 (antibody, V domains shown)
VH: EVQLVESGGGLVQPGGSLRLSCAASEFIVSSNYMTWVRQAPGKGLEWVSIMYPGGSTFYADSVKGRFTISRDNSKNTLYLQINRLRAEDTAVYYCARDIAGRLDYWGQGTLVTVSS
VL: DIQMTQSPSSLSASVGDRVTITCQASQDINNYLNWYQQKPGKAPKLLIYDASNLETGVPSRFSGSGSGTDFSFTISSLQPEDIATYYCQQYDNLSRLTFGGGTKVEIK
notes: as for B1
B7: C3111 (antibody, V domains shown)
VH: EVQLVESGGRVVRPGESLRLSCAASGFNFNDYGMSWVRQVPGKGLEWVSGINWNGAISGYVDSVKGRFIISRDNAKNSLYLQMNSLRAEDTALYHCARAYCGDECYSLLVRGDALDIWGQGTMVTVSS
VL: QSVLTQPPSVSAAPGQTVTISCSGSSSNIGMNDVSWYQHLPGTAPKLLIYDSHKRPSGIPDRFSGSNSGTSATLGITGLQTGDEAHYYCGAWDSSLSAVVFGGGTMLAVL
notes: as for B1
B8: C986 (antibody, V domains shown)
VH: EVQLVQSGAEVKKPGETLKISCKGSGDSFSNYWIGWVRQSPGKGLEWMAIVYPGDSDARYSPSFQGQVTISADKSVTTAYLKWSSLKASDTAIYYCVRGLPVDWYFDLWGRGTLVTVSS
VL: QSVLTQPPSVSGAPEQRVTISCTGSSSNIGAGHDVHWYQQLPGTAPKLLIYNNNNRPSGVPDRFSGSKSGASASLAISGLQAEDEAEYYCQSYDKSLSVLYVLGTGTKVTV
notes: as for B1
B9: C963 (antibody, V domains shown)
VH: QVQLVQSGAEVKKPGSSVRVSCKASGGTFSSFTITWVRQAPGQGLEWMGRIIPNLNIPNYAQRFQGRITITAEKSTSTAYLELSSLRSEDTAVYYCARGVGYSGSGSNWYFDLWGRGTLVTVSS
VL: QSVLTQPPSVSGAPGQRVTISCTGSSSNIGAGYDVHWYQQLPGTAPKLLISGHINRPSGVPDRFSGSTSGTSASLAITGLQAEDEADYYCQSYDSSLSDSVFGGGTKLTV
notes: as for B1
B10: C2588 (antibody, V domains shown)
VH: QVQLVQSGAEVKKPGSSVKVSCKASGDTFNIYAINWVRQAPGQGLEWMGRIIPRFGMANYAQKFQGRVTMTADKSTSTAYMDLISLKSEDTAVYYCATSAYLSGSGHYFDYWGQGTLVTVSS
VL: EIVLTQSPATLSLSPGERATLSCRASQSVGGSFLAWYQQKPGQAPRLLIYGASSRATGIPDRFSGSGSGTDFTLTISRLEPEDFAVYFCQQYASSRTFGQGTKVEIK
notes: as for B1
B11: C1047 (antibody, V domains shown)
VH: EVQLVQSGAEVKKPGESLKISCKGSGYSFISYWIVWVRQMPGKGLEWIGIIYPGDSDTIYSPSFQGQVTLSADKSISTAYLQWSSLKASDTAIYYCAKMVTSGTSYYETRGYASSGPFDNWGQGTLVTVSS
VL: DIQLTQSPSSLSASVGDRVTITCRASQGISSALAWYQQKPGKAPKLLIYDASSLESGVPSRFSGSGSGTDFTLTISSLQPEDFATYYCQQSDNFGPGTKVDI
notes: as for B1
B12: C1049 (antibody, V domains shown)
VH: EVQLVQSGAEVKKPGESLKISCKSSGYSFISHWIGWVRQMPGKGLEWMGIIWPGDSDTRYSPSFQGQVTISVDKSITTVYLQWSSLKAADTAMYYCARRGSSWEVDYWGQGTLVTVSS
VL: not shown
notes: as for B1
B13: C118 (antibody, V domains shown)
VH: QVQLVESGGGVVQPGRSLRLSCAASGFTFSNYAMHWVRQAPGKGLEWVAVISYDGSNKYYADSVKGRFTISRDNSKNTLYLQMNSLRAEDTAIYYCASGYTGYDYFVRGDYYGLDVWGQGTTVTVSS
VL: QPVLTQSPSASASLGASVKLTCTLSSGHSSYAIAWHQQQPEKGPRYLMKLNTDGSHSKGDGIPDRFSGSSSGAERYLTISSLQSEDEADYYCQTWGTGILVFGGGTKLTVL
notes: as for B1
B14: C3054 (antibody, V domains shown)
VH: EVQLVESGGGLGQPGGSLRLSCVASGFSFSTYSMNWVRQAPGKGLEWLSYINAGSTTIYSADSVTGRFSISRDNAKNSLYLHMNSLRADDTAVYYCARGVPFDYWGQGTLVTVSS
VL: DIVMTQTPLSLPVTPGEPASISCRSSRSLLDSDDADTYLDWYLQKPGQSPQLLIYTLSYRASGVPDRFSGSGSGTDFTLKISRVEAEDVGVYYCMQRIQFPWTFGQGTKVEIK
notes: as for B1
B15: C2593 (antibody, V domains shown)
VH: QVQLVQSGAEVKKPGSSVKVSCKASGGTFNSYAITWVRQAPGQGLEWMGGIIFIFDTANYAQKFQGRVTITADESTSTVYMELSSLRSEDTAVYYCARPGAELRDHYYYYGMDVWGQGTTVTVSS
VL: DIVMTQSPLSLPVTPGEPASISCRSTQSLLHSNGNNYLDWYLQKPGQSPQLLIYLASNRAPGVPDRFSGSGSGTDFTLRISRVEAEDVGVYYCMQALQTPPTFGQGTRLEIK
notes: as for B1
B16: C978 (antibody, V domains shown)
VH: QVQLVQSGAEVKKPGSSVKVSCKASGATFSNYIISWVRQAPGQGLEWMGRTIPLLDIANYAQKFQGRVTITADKSTRIVYMHLGSLTSEDTAVYYCATGKGYSSSSAAYYFDHWGQGTLVTVSS
VL: QSVLTQPPSVSGAPGQRVTISCTGTNSNIGAGYDIHWYQQLPGTAPKLLIYGSNNRPSGVPDRFSGSKSGTSASLAITGLQAEDEADYYCQSYDSSLSGSEVFGGGTKLTVL
notes: as for B1
B17: C080 (antibody, V domains shown)
VH: EVQLVQSGAEVKKPGESLNISCKASGYSFTIYWIAWVRQLPGKGLEWMGIIYPGDSDTRYSPSFQGQVTISADKSISTAYLQWRSLKASDSAVYYCARGVAVDWYFDLWGRGTLVTVSS
VL: QSVLTQPPSVSGAPGQRVTISCAGSSSNIGAGFDVYWYQQLPGTAPKLLIYGNNNRPSGVPDRFSGSKSGTSASLAITGLQAEDEADYYCQSSGSVLSDLYVFGTGTKVTVL
notes: as for B1
B18: C099 (antibody, V domains shown)
VH: EVQLVESGGGLIQPGGSLRLSCAASGITVSSNYMSWVRQAPGKGLEWVSVMYAGGSTFYADSVKGRFTISRDDSKNTLFLQMNSLRAEDTAIYYCARDLYSSGGTDIWGQGTMVTVSS
VL: EIVLTQSPGTLSLSPGERATLSCRASQSIGSSYLAWYQQKPGLAPRLLIYGASRRATGIPDKFSGSGSGADFTLTISRLEPEDFAVYYCQQYGSSPGTFGQGTKVEIK
notes: as for B1
B19: C3057 (antibody, V domains shown)
VH: QVQLVQSGGGLVQPGGSLRLSCEASGLSVSRNYMRWVRQAPGKGLEWVSLIYSGGSTFYADSVKGRFTISRDNSKNTLYLQMTSLRAEDTAVYYCARDLVDYGMDVWGHGTTVTVSS
VL: DIQLTQSPSFLSASVGDRVTITCRASQGISNYLAWYQQKPGKAPQLLIYAASTLQSGVPSRFSGSGSGTEFTLTISSLQPEDFATYFCQQLNSDVITFGQGTRLEIK
notes: as for B1
B20: C3123 (antibody, V domains shown)
VH: QVQLQESGPGLVKPSQTLSLTCAVSGDSVSRGGFYWTWIRQLPGMGLECIGYIDYSGSTHYNPSLKSRVTISLDTSNNQFSLKMTSVTAADTALYYCARGAVPGIGWFDPWGQGTLVTVSS
VL: SYELTQPPSVSVAPGKTASISCGGNNIATKSVHWYQQKPGQAPALVIYYDSDRPSGIPERFSGSNSGNTATLTISRVEAGDEAAYYCQVWESSGDHVVFGGGTKLTVL
notes: as for B1
B21: C3060 (antibody, V domains shown)
VH: QVQLQESGPGLLKPSQTLSLICTVSGGSISSGDYYWNWIRQTPGKGLEWIGYIYYSGITYYNPSLKSRLSISLDTPKNQFSLKLTSVTAADTAVYYCATGPPTVTTENFDNWGQGTLVTVSS
VL: QSVLTQPPSVSAAPGQKVTISCSGSSSNIGNYYVSWYQQLPGTAPQLVIYDNNKRPSGIPDRFSGSKSGTSATLAITGLQTGDEADYYCGTWDASLNAGVFGGGTRLTVL
notes: as for B1
B22: C1068 (antibody, V domains shown)
VH: QVQLVESGGGVVQPGRSLRLSCAASGFTFSTFAMHWVRQAPGKGLEWVAVTSYDGSNKYYADSVKGRFTISRDNSKNTLYLQMNSLRAEDTAVYYCARGLLWFGESEYFQHWGQGTLVTVSS
VL: not shown
notes: as for B1

The binders below were run against WT RBD (SARS-CoV-2 Wuhan-Hu-1 spike receptor binding domain) (SARS-CoV-2 (Wuhan-Hu-1), UniProt P0DTC2) (assay: BLI). Conditions: both partners purified.

Binder | Kd [nM]
B1 | 0.949
B2 | 0.201
B3 | 2.08
B4 | 3.72
B5 | 3.15
B6 | 0.441
B7 | 0.236
B8 | 0.472
B9 | 0.653
B10 | 1.47
B11 | 4.99
B12 | 2.35
B13 | 2.66
B14 | 2.49
B15 | 1.37
B16 | 1.33
B17 | 0.286
B18 | 0.00214
B19 | 2.08
B20 | 1.57
B21 | 1.1
B22 | 28.8
